Source: US8835136B2, “Engineered amine dehydrogenases and methods of use thereof” (Georgia Tech Research Corporation, priority 2012, dated 2014)
≈ marks a conversion by molar mass, not a printed value.

Experiments:
[1] = Solubility of PFPA substrate; assay type: physicochemical
Procedure: The enzyme tolerates acetone concentrations as high as 20% v/v. The PFPA substrate has a limited solubility of 40 mM in aqueous media, but was increased to 60 mM with the addition of acetone.

[2] = Amination of phenylpyruvate; assay type: biochemical; conditions: 500 mM NH4Cl/NH4OH pH 9.6, 200 μM NADH, 5 mM phenylpyruvate, 25° C.
Procedure: (§1) The wild-type PheDH from B. badius was characterized to ensure proper expression and folding prior to mutation. […] KM values were determined for the substrates when possible, and corresponded well to those values found in literature (110). Additionally, the K1 value of ammonia was determined to be 5.0 M. The KM of phenylpyruvate could not be determined due to its high absorbance at the analytical wavelength. The wild-type enzyme was determined to be properly folded and active.

[3] = Kinetic parameters for ammonia (PheDH / PheDH-AmDH); assay type: biochemical; conditions: amination of phenylpyruvate; read-out: KM, NH3
Procedure: as §1
Kinetic parameters, kcat and KM, were determined for the enzyme and each of the reductive amination substrates; respectively. […] The kcat value for this AmDH enzyme with all three substrates saturated in aqueous NH4Cl/NH4OH buffer at pH 9.6 was 6.85 s^−1 at 25° C. This represents a near 15-fold enhancement above the maximum observed kcat of 0.46 s^−1 of the previously developed LeuDH-AmDH.

[4] = Deamination of L-Phe; assay type: biochemical; conditions: 0.1 M Glycine pH 10.0, 1 mM NAD+, 20 mM L-Phe, 25° C.
Procedure: as §1

[5] = Reductive amination, spectrophotometric assay at 340 nm; assay type: biochemical; conditions: for Reductive amination specific activity: maximum specific activity, nonlinear fit
Procedure: (§2) Activity of purified proteins was measured using a spectrophotometric assay at 340 nm, corresponding to the cofactor nicotinamide adenine dinucleotide (NADH, ε340=6220 M^−1 cm^−1) (Dawson, et al., Clarendon Press, (1989). For reductive amination, reactions took place in 500 mM NH4Cl/NH4OH at pH 9.6, with 200 μM NADH and 20 mM of the ketone substrate, unless otherwise specified. For oxidative deamination, reactions took place in 0.1 M NaHCO3/Na2CO3 buffer at pH 10.0, with 1 mM NAD+ with 10 mM of the amine substrate of interest. All reactions were performed at 25° C. unless otherwise specified. Enzyme was added in 10 μL aliquots in dilute concentrations. Enzyme concentrations varied upon activity levels with the substrate present, but were dilute enough to ensure linear conversion kinetics over the analytical time period (10 min to 30 min). Specific activities were then calculated from the stoichiometric conversion of cofactor as determine by the change in absorbance at 340 nm over time.

[6] = Oxidative deamination, spectrophotometric assay at 340 nm; assay type: biochemical; conditions: for Oxidative deamination specific activity: maximum specific activity, 1,3-DMBA
Procedure: as §2, with “For oxidative deamination, reactions took place in 0.1 M NaHCO3/Na2CO3 buffer at pH 10.0, with 1 mM NAD+ with 10 mM of the amine substrate of interest.” left out

[7] = Native leucine dehydrogenase activity; assay type: biochemical
Procedure: as §2

[8] = Conversion with GDH cofactor recycle system (LeuDH-AmDH); assay type: biochemical; conditions: 10 mM MIBK
Procedure: Initial rate kinetic measurements are used primarily in the determination of kinetic parameters to avoid second-order effects and product inhibition. The enzyme's ability to reach complete substrate conversion cannot be determined from these initial rate experiments, and was instead evaluated by chiral GC of overnight conversion with a GDH recycle system. The GDH regenerates the expensive NADH by redox reaction of NAD+ and inexpensive glucose (FIG. 1). In 1.5 mL reactions, replicates containing 10 mM MIBK substrate was mixed with an excess of 12 mM glucose, 10 U GDH, and a catalytic amount of NADH (200 μM). Histag purified K67S/E113V/N261L/V290C LeuDH-AmDH (0.13 mg) was added to each reaction and allowed to convert for 18 hours. An additional 0.13 mg of enzyme was then added and allowed to react for 10 hours to achieve the maximum conversion. One mL aliquots of the final reaction media were adjusted to pH>13 by the addition of 100 μL of 10 N NaOH and derivatized in toluene according to the TFAA protocol.
The product amine was additionally confirmed through ^1H NMR. A 175 mL-scale amination reaction with GDH cofactor recycle was performed similar to previous conversion experiments. […] Following separation, the solvent was removed through rotovap distillation, and the purified product was analyzed by ^1H NMR. […]

[9] = Oxidative deamination, spectrophotometric assay at 340 nm; assay type: biochemical
Procedure: as §2, with “For oxidative deamination, reactions took place in 0.1 M NaHCO3/Na2CO3 buffer at pH 10.0, with 1 mM NAD+ with 10 mM of the amine substrate of interest.” left out
The enantioselectivity was initially estimated by measuring the deamination activity toward individual enantiomers of methylbenzylamine (MBA). […] A preference towards (R)-MBA over the corresponding (S)-enantiomer was evident in the discrepancies between the deamination activities of 0.586 U mg^−1 and 0.002 U mg^−1, respectively. These preliminary results were corroborated through direct measurement of the enantioselectivity of the MIBK amination in producing chiral 1,3-DMBA.

[10] = purified LeuDH library 10/11 hits

Which solubility ([1]; aqueous media) does the source give for `CC(=O)Cc1ccc(F)cc1` [PFPA, para-fluoro phenyl acetone] here?
Its solubility is 40 mM (≈ 6090 µg/mL).

What about the solubility ([1]; aqueous media with added acetone, aqueous with cosolvent or surfactant or cyclodextrin, with the addition of acetone) of the same molecule?
Its solubility is 60 mM (≈ 9130 µg/mL).

B1: Wild Type: PheDH from Bacillus badius, SEQ ID NO:1 (protein, listed as Bacillus badius)
chain: SLVEKTSIIKDFTLFEKMSEHEQVVFCNDPATGLRAIIAIHDTTLGPALGGCRMQPYNSVEEALEDALRLSKGMTYKCAASDVDFGGGKAVIIGDPQKDKSPELFRAFGQFVDSLGGRFYTGTDMGTNMEDFIHAMKETNCIVGVPEAYGGGGDSSIPTAMGVLYGIKATNKMLFGKDDLGGVTYAIQGLGKVGYKVAEGLLEEGAHLFVTDINEQTLEAIQEKAKTTSGSVTVVASDEIYSQEADVFVPCAFGGVVNDETMKQFKVKAIAGSANNQLLTEDHGRHLADKGILYAPDYIVNSGGLIQVADELYEVNKERVLAKTKHIYDAILEVYQQAELDQITTMEAANRMCEQRMAARGRRNSFFTSSVKPKWDIRN
For B1, which “activity in the amination of phenylpyruvate” value [2] is on record?
Its value is “greater than 257 U mg^−1”.

And the Km [3]?
Its Km is 64.5 mM.

And the “activity in the deamination of L-Phe” value [4]?
Its value is 39.5 U mg^−1.

And the “Amination Activity 40 mM MIBK, kcat” value ([5]; 500 mM NH4Cl/NH4OH pH 9.6, 200 μM NADH, 25° C.)?
The value was “—No Activity—”.

What about the “Deamination Activity 40 mM 1,3-DMBA, kcat” value ([6]; 0.1M Glycine pH 10.0, 1 mM NAD+, 25° C.) of the same molecule?
The value was “—No Activity—”.

B2: WT: LeuDH from Bacillus stearothermophilus, SEQ ID NO:4 (protein, listed as Bacillus stearothermophilus)
chain: ELFQYMEKYDYEQVLFCQDKESGLKAIIVIHDTTLGPALGGTRMWMYNSEEEALEDALRLARGMTYKNAAAGLNLGGGKTVIIGDPRKDKNEAMFRAFGRFIQGLNGRYITAEDVGTTVADMDIIYQETDYVTGISPEFGSSGNPSPATAYGVYRGMKAAAKEAFGSDSLEGKVVAVQGVGNVAYHLCRHLHEEGAKLIVTDINKEAVARAVEEFGAKAVDPNDIYGVECDIFAPCALGGIINDQTIPQLKAKVIAGSADNQLKEPRHGDMIHEMGIVYAPDYVINAGGVINVADELYGYNRERAMKKIEQIYDNIEKVFAIAKRDNIPTYVAADRMAEERIETMRKARSQFLQNGHHILSRRRAR
Which results are given for B2?
activity for reductive amination ([5]; MIBK): no measurable activity; Reductive amination specific activity ([5]; MIBK): n.m.^[c]; native activity toward 1-Leu [7]: 112 U mg^−1; Oxidative deamination specific activity [6]: n.m.

B3: K67S/E113V/N261L/V290C: LeuDH-AmDH quadruple variant, SEQ ID NO:10, library 11 (protein)
chain: ELFQYMEKYDYEQVLFCQDKESGLKAIIVIHDTTLGPALGGTRMWMYNSEEEALEDALRLARGSTYMNAAAGLNLGGGKTVIIGDPRKDKNEAMFRAFGRFIQGLNGRYITAVDVGTTVADMDIIYQETDYVTGISPEFGSSGNPSPATAYGVYRGMKAAAKEAFGSDSLEGKVVAVQGVGNVAYHLCRHLHEEGAKLIVTDINKEAVARAVEEFGAKAVDPNDIYGVECDIFAPCALGGIINDQTIPQLKAKVIAGSADLQLKEPRHGDMIHEMGIVYAPDYVINAGGCINVADELYGYNRERAMKKIEQIYDNIEKVFAIAKRDNIPTYVAADRMAEERIETMRKARSQFLQNGHHILSRRRAR
Which average substrate conversion ([8]; 1.5 mL, 18 h + 10 h, chiral GC) does the source give for B3 here?
The average substrate conversion was 92.5%.

And the conversion ([8]; 175 mL-scale, 48 hours)?
The conversion was 84.7%.

And the “deamination activity toward (R)-MBA” value [9]?
Its value is 0.586 U mg^−1.

And the “deamination activity toward (S)-MBA” value [9]?
Its value is 0.002 U mg^−1.

And the “Specific activity, (R)-MBA” value ([9]; 20 mM substrate)?
Its value is 586.3 mU mg^−1 protein.

And the “Specific activity, (S)-MBA” value ([9]; 20 mM substrate)?
Its value is 1.6 mU mg^−1 protein.

And the “Specific activity, acetophenone” value ([5]; 20 mM substrate)?
Its value is 58.8 mU mg^−1 protein.

What about the “Specific activity, cyclohexanone” value ([5]; 20 mM substrate) of the same molecule?
Its value is 123.4 mU mg^−1 protein.

What about the “Specific activity, ethyl pyruvate” value ([5]; 20 mM substrate) of the same molecule?
Its value is 13.2 mU mg^−1 protein.

And the “Specific activity, ethyl-3-oxohexanoate” value ([5]; 20 mM substrate)?
The value was 14.0 mU mg^−1 protein.

And the “Specific activity, methyl acetoacetate” value ([5]; 20 mM substrate)?
The value was 4.5 mU mg^−1 protein.

And the kcat ([5]; MIBK amination)?
The kcat was 0.46 s⁻¹.

What about the Km ([5]; MIBK substrate, read-out: KM (reductive amination)) of the same molecule?
Its Km is 15.1 mM.

And the amination activity ([5]; MIBK, non-linear Michaelis-Menten fit)?
Its amination activity is 0.69 U mg^−1.

And the “Reductive amination specific activity” value ([5]; MIBK)?
Its value is 0.690 U mg^−1 protein.

And the “Amination of MIBK Vmax” value [5, 10]?
The value was 0.331 ± 0.07.

And the Km ([5]; purified LeuDH library 10/11 hits, read-out: Amination of MIBK KM)?
Its Km is 18.7 ± 11.7 mM.

What about the “Specific activity, cyclohexylamine” value ([6]; 20 mM substrate) of the same molecule?
Its value is 56.0 mU mg^−1 protein.

What about the “Specific activity, (R/S)-MBA” value ([6]; 40 mM racemic, 20 mM of each enantiomer) of the same molecule?
The value was 784.6 mU mg^−1 protein.

What about the Km ([6]; 1,3-DMBA substrate, read-out: KM (oxidative deamination)) of the same molecule?
Its Km is 57.5 mM.

What about the “Oxidative deamination specific activity” value [6] of the same molecule?
The value was 2.64 U mg^−1 protein.

And the “Deamination of 1,3-DMBA Vmax” value [6, 10]?
The value was 2.350 ± 0.26.

What about the Km ([6]; purified LeuDH library 10/11 hits, read-out: Deamination of 1,3-DMBA KM) of the same molecule?
The Km was 41.9 ± 9.7 mM.
